Test results as given in the supplement of paper PMC9170038.

Tested on: MS2 coat protein
Assay: apparent KD of MS2 coat protein; designed switch direction (-1 OFF switch, 1 ON switch): -1; higher = weaker reporter binding
Outline: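 Normalised cluster fluorescence was curve-fitted, and each design's median over clusters is its apparent KD. Before this, SNAP-549-labelled MS2 coat protein was titrated from 0.7 or 1.5 nM, doubling to 3 µM, over RNA switches transcribed on Illumina chips by stalled E. coli RNA polymerase. Titrations had no input, 200 uM small-molecule ligand, or an oligonucleotide input, and steps lasted 0.8–1.5 h (lowest) to 10–20 min (highest).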

[1] = input ligand: microRNA oligo, concentration not stated
[2] = Eterna round: R95, input ligand: FMN 200 uM
[3] = Eterna round: R95, input ligand: microRNA oligo, concentration not stated
[4] = Eterna round: R95, input ligand: none

Sequence | apparent KD of MS2 coat protein (input ligand: FMN 200 uM) [nM] | apparent KD of MS2 coat protein [1] [nM] | apparent KD of MS2 coat protein (input ligand: none) [nM] | apparent KD of MS2 coat protein [2] [nM] | apparent KD of MS2 coat protein [3] [nM] | apparent KD of MS2 coat protein [4] [nM]
AAACAAUCCCGAGGAUAUCGGCUAUUAGCAUGCCGAGAAGGCGGCGCGCAUCGACAUGAGGAUCACCCAUGUGUCCGCUCGGUU [Eternabot solution 31] (Eterna round: R96, puzzle: Exclusion NG 1) | 20.8 | 13.6 | 21.6 | – | – | –
ACCUCACUUGAGGAUCACCCAAGUCAGGAUAUACUCGUUUGCCGAAAGACGCGGCAUUGUAGAAGGGACGGGUU [Raortiza] (Eterna round: R97, puzzle: Exclusion 1) | 26.6 | – | 15.5 | – | – | –
GGUUGACAUGAGGAUCACCCAUGUGAGGAUAUGCGAGAGAAAAAAGUGAGGAAGAGAUGCAGAAGGCGCUGUCG [salish99-ex1_r3_016] (puzzle: Exclusion 1) | – | – | – | 68.5 | 85.8 | 121
ACACAGCAAGGAUAUACAUGAGGAUCACCCAUGUGGUGGCCGUUACGGUAGGACUAGUGUAGAAGGUGCAUUGG [EX3 #32] (Eterna round: R97, puzzle: Exclusion 3) | 637 | – | 469 | – | – | –
AAAGAACAUGAGGAUCACCCAUGUGAGGAUAUGUGAGAAUUGUGGAGAAGAAGAGAGAACAGAAGGCACUGAGG [JR_Exclu1_Sub067] (puzzle: Exclusion 1) | – | – | – | 77 | 51.3 | 64.5
GGAUCUACUGAGGAUAUUAUAUCACCCGACUGAUAAGAAGGCAGUACAUGAGGAUCACCCAUGUGGGUAGCCAC [Polaris7] (Eterna round: R97, puzzle: Exclusion 6) | 79.6 | – | 99.4 | – | – | –
GGUGCGUAUGUGAGGAUAUGCUGGUCCUUGGCUCGGCAGAAGGCACAUGAGGAUCACCCAUGUGGUGUCGUACG [salish99_Bmod_ex4_063] (puzzle: Brourd's mod of Exclusion 4) | – | – | – | 249 | 36.5 | 54.4
UAUUUACAUGAGGAUCACCCAUGUUAGGAUAUGUUUCUAUCGUCGAAAGAUGAUAUUUGCAGAAGGGACAAUAU [LRO-Excl01-28 mod derived from EliFisker 4.24] (Eterna round: R97, puzzle: Exclusion 1) | 24 | – | 24.3 | – | – | –
GUACUGAAGCAUAGCUUUAGUCGUACAUGAGGAUCACCCAUGUAGGAUAUGGUAGGCUUUGCUUACUAGAAGGAUAGAGUGAUC [Mat - Exclusion NG 3 - Mod of JL - D71] (Eterna round: R96, puzzle: Exclusion NG 3) | 157 | 86.8 | 109 | – | – | –
AAUUCUAGGGUCAGACGCACAAGCUUUUUGUUCGUUUUAACAUGAGGAUCACCCAUGUCUAGUGGAUCUGAUCGGGC [JL ViennaUCT Isreen mod 9] (puzzle: Sensor v3, turn-off variant 2) | – | – | – | 28.6 | 71.4 | 31
CCCAGUUAGGAAGGAUAUUGUACAUGAGGAUCACCCAUGUAAUAAAUGAGGAUCACGGAUGUAGACAAGAAGGUCCGGAUAGGC [Ostracism 8 - Jieux - Exclusion NG 2] (Eterna round: R96, puzzle: Exclusion NG 2) | 104 | 41.5 | 55.5 | – | – | –
UGCGUACAUGAGGAUCACCCAUGUGAGGAUAUUUGGCAUCGCGAGUGCCCAAGGAGAUAGAGAAGGCAUAUGGA [Eternabot (L1) Solution 50] (Eterna round: R97, puzzle: Exclusion 1) | 34.3 | – | 37.2 | – | – | –
GUUAAUUGUGACAUGGGUGACAUGAGGAUCACCCAUGUCACAAGCUUUUUGUUCGUCUUAUAAUUAACCCAUGUCAC [Stov1/13-B2] (Eterna round: R97, puzzle: Sensor, turn-off variant 1) | 79.8 | – | 94.8 | – | – | –
AAUAAUUGUGACUUGGGUGACAUGAGGAUCACCCAUGUUACAAGCUUGUUGCUCGUCUUAUAAUUAACCCAUGUCAC [LRO Sensor-off var1-24 mod of Stov1-13-A1 by Brourd] (Eterna round: R97, puzzle: Sensor, turn-off variant 1) | 21.1 | – | 21.9 | – | – | –
UAUUCUAGAUAGGAUAUACUUUUUUUUUUUUUCGUAGAAGGAUCUACAUGAGGAUCACCCAUGUUAUCAGCAGU [JR_E6_Sub011] (puzzle: Exclusion 6) | – | – | – | 27.5 | 30.2 | 22.4
ACAAGCUCUGUGGGUGGUGACAUGAGGAUCACCCAUGUUUUGCUCGUCUUGUGCCGGCCGGCCCGCGGCCGGCCGGC [-40.6, -69.5, A 12%] (Eterna round: R97, puzzle: Sensor, turn-off variant 1) | 718 | – | 885 | – | – | –
CUGAGGUAGCGGUCCUAUGACAUGAGGAUCACCCAUGUACCUUGCUUUGAGCUAUUUGCUCGUCUUAUGAUUCUCGG [Mat - Sensor v3 - turn-off var 1 - JL Mod - D40] (puzzle: Sensor v3, turn-off variant 1) | – | – | – | 457 | 355 | 545

Sequence | apparent KD of MS2 coat protein (input ligand: FMN 200 uM) [nM] | apparent KD of MS2 coat protein [1] [nM] | apparent KD of MS2 coat protein (input ligand: none) [nM] | apparent KD of MS2 coat protein [2] [nM] | apparent KD of MS2 coat protein [3] [nM] | apparent KD of MS2 coat protein [4] [nM]
CAUCCGGCAGGAUAUACAUGAGGAUCACCCAUGUCAGAAAGCAAAUUGUGCGACUCAGGUAGAAGGGUUGGACU [Ederusat] (puzzle: Exclusion 3) | – | – | – | – | 21.1 | –
AUAAUGUGAGGAUAUAUGAAUCACGGUGAUACACCGUGAAGAUAGAAGGUACAUGAGGAUCACCCAUGUAGGGC [Mod of Anonveat 14 - Jieux - Exclusion 4] (Eterna round: R97, puzzle: Exclusion 4) | 39.5 | – | 42.3 | – | – | –
AUAUUGCGAGGAUAUACAUGAGGAUCACCCAUGUGGUAGUAGAUACGGUAGGGCUAGUGUAGAAGGUGUUAUGA [EX3 #14] (Eterna round: R97, puzzle: Exclusion 3) | 80.2 | – | 172 | – | – | –
GAGUAGUAAGGAUAUAGUAGGAGGGAGAAGAGAGGAGAGAACUAGAAGGUACAUGAGGAUCACCCAUGUUGAGA [JR_Exclu4_Sub083] (puzzle: Exclusion 4) | – | – | – | 18.5 | 17 | 20.4
CUUGUUUAUGUAGGAUAUGCCUGGCGUGCCUUUGCAGAAGGACAUGAGGAUCACCCAUGUAUUGCGGUCUGCGUUCAGAUCGCU [salish99_ExNG1_r4_044] (Eterna round: R96, puzzle: Exclusion NG 1) | 41.1 | 28.8 | 36.6 | – | – | –
UUGUCACAUGAGGAUCACCCAUGUGAGGAUAUGGCCCGCCCGGCGUGUGCUGGUUUUGUCAGAAGGCGCGUGGG [salish99_ex1_r4_028] (Eterna round: R97, puzzle: Exclusion 1) | 24.6 | – | 19.6 | – | – | –
CGUGACUCAGGAUAUGUAUAAUAUCACAUGAGGAUCACCCAUGUCCAGCGAAAGCUGGAGGCAGAAGGGAGUCACG [Fiskers Ex 5 - 38] (puzzle: Exclusion 5) | – | – | – | 43.1 | 58.8 | 31.9
AGUCAGAGAGGAUAUACAUGGGAAAAAAAAGUAAGAUCCCUACAUGAGGAUCACCCAUGUAGAAGGCUCUGACA [Ex2 Design 139: Sub-opt 3] (Eterna round: R96, puzzle: Exclusion 2) | – | 17.3 | – | – | – | –
AGGUCCUUCUGGACACAUGAGGAUCACCCAUGUGAGGUCAGCGAGGAUAUCGGUCAAUAAUGUGACGAGAAGGCGCGGACCGAU [Ex NG3 #58] (Eterna round: R96, puzzle: Exclusion NG 3) | 31.6 | 14.8 | 19.1 | – | – | –
CACUUACAUGAGGAUCACCCAUGUGAGGAUAUCGUGACCUGACGAGAAGUCAAUGUCACGAGAAGGUACAUGGG [Exclusion 1 (Mod 1 solution 97 by Eternabot)] (Eterna round: R97, puzzle: Exclusion 1) | 59.3 | – | 68.2 | – | – | –
UUAGAUUAUGAAGGAUAUGGAUCUUAUUAUUAACCAGAAGGUCAACUCAACAUGAGGAUCACCCAUGUAUAAAGGGUAUUAGUU (Eterna round: R96, puzzle: Exclusion NG 1) | – | 109 | – | – | – | –
AGCUGACGAGGAUAUACAUGAGGAUCACCCAUGUUGGUCAAGCGACUUCGGUCGCAAUGUAGAAGGCGUCAGCU [E3/8-A4] (Eterna round: R97, puzzle: Exclusion 3) | 263 | – | 430 | – | – | –
ACUCAACAUGAGGAUCACCCAUGUCAGGAUAUCUCUAUUUUGCGCGGGAGCAGAAUAGAGAGAAGGGACAACCU [Eternabot (Original) Solution 3] (Eterna round: R97, puzzle: Exclusion 1) | 91.2 | – | 42.8 | – | – | –
GCGCAGUCAGGAUAUGCCGGAUAGGAUCACCCUGUCCAAAGGCAGAAGGGACAUGAGGAUCACCCAUGUGGCGC [e4e Mirror Pins] (puzzle: Exclusion 4) | – | – | – | 22.2 | 17.7 | 16.8
AAGACACAUGAGGAUCACCCAUGUGAGGAUAUGCGAUGCUAAGCGUAAGCUUAGUAUCGCAGAAGGCACAAAGG [Salishxclusion 4 - Jieux - Exclusion 1] (Eterna round: R97, puzzle: Exclusion 1) | 76.9 | – | 64 | – | – | –
CCUUCUCGUGUCAGGAUAUCCACUCAUCGAAAUUAGGAGAAGGGACAUGAGGAUCACCCAUGUAUACAUGCCAG [Cequesar] (puzzle: Brourd's mod of Exclusion 4) | – | – | – | – | 61.7 | –
GAUUGACAUGAGGAUCACCCAUGUGAGGAUAUCGGCUGGACCGUGUUGGCUUCCGUUUCGAGAAGGCGCAUAGG [Exclusion 1 V44] (puzzle: Exclusion 1) | – | – | – | – | 23.2 | –
